Laboratory results from article PMC3760018 (European journal of immunology, 2013).
Numbering of substitutions follows the chain as printed. Names may count otherwise.

B1: recombinant C4BP α-chain WT (natural protein, human, UniProt P04003 49-597, looked up)
chain: NCGPPPTLSFAAPMDITLTETRFKTGTTLKYTCLPGYVRSHSTQTLTCNSDGEWVYNTFCIYKRCRHPGELRNGQVEIKTDLSFGSQIEFSCSEGFFLIGSTTSRCEVQDRGVGWSHPLPQCEIVKCKPPPDIRNGRHSGEENFYAYGFSVTYSCDPRFSLLGHASISCTVENETIGVWRPSPPTCEKITCRKPDVSHGEMVSGFGPIYNYKDTIVFKCQKGFVLRGSSVIHCDADSKWNPSPPACEPNSCINLPDIPHASWETYPRPTKEDVYVVGTVLRYRCHPGYKPTTDEPTTVICQKNLRWTPYQGCEALCCPEPKLNNGEITQHRKSRPANHCVYFYGDEISFSCHETSRFSAICQGDGTWSPRTPSCGDICNFPPKIAHGHYKQSSSYSFFKEEIIYECDKGYILVGQAKLSCSYSHWSAPAPQCKALCRKPELVNGRLSVDKDQYVEPENVTIQCDSGYGVVGPQSITCSGNRTWYPEVPKCEWETPEGCEQVLTGKRLMQCLPNPEDVKMALEVYKLSLEIEQLELQRDSARQSTLDKEL
B2: recombinant C4BP α-chain R120H (natural protein, human, UniProt P04003 49-597, looked up)
chain: B1 chain with R72H
B3: recombinant C4BP α-chain I126T (natural protein, human, UniProt P04003 49-597, looked up)
chain: B1 chain with I78T
B4: recombinant C4BP α-chain I224T (natural protein, human, UniProt P04003 49-597, looked up)
chain: B1 chain with I176T
B5: recombinant C4BP α-chain D284E (natural protein, human, UniProt P04003 49-597, looked up)
chain: B1 chain with D236E
B6: recombinant C4BP α-chain I300T (natural protein, human, UniProt P04003 49-597, looked up)
chain: B1 chain with I252T
B7: recombinant C4BP α-chain G423E (natural protein, human, UniProt P04003 49-597, looked up)
chain: B1 chain with G375E

Target: recombinant C4BP α-chain P4Q (human) (UniProt P04003)
Assay: non-reducing SDS-PAGE

Stoichiometry N, 6:
recombinant C4BP α-chain P4Q (from UniProt P04003 49-597) (natural protein)

Target: the molecule itself
Assay: non-reducing SDS-PAGE

Stoichiometry N, 6:
B1
B2
B3
B4
B5
B6
B7
